One series concerns JNK. As to the kind of experiment: Activation of JNK by cisplatin in 293T cell lines (Western blot). The note with it: 293T cells stably expressing GSE 24.2 vs pLNCX; cisplatin 6 hours. It is filed as cell-based, human. As for the experimental part:
FIG. 2.—Cell viability and activation of the JNK and p38 death pathways in 293T cell lines: pLNCX and 24.2, treated with cisplatin. A) Cell viability. After seeding the 293T cells: expressing the empty vector (pLNCX) and GSE 24.2 (24.2) in 24-well plates, they were incubated with concentrations between 0-100 μg/ml of cisplatin. The cell viability was measured by means of the crystal violet technique after 72 hours of exposure to the drug. The data represent the mean of two experiments performed in quadruplicate. B) Activation kinetics. Subsequently, the activation of JNK and p38 was studied using antibodies that specifically recognise the active forms. As a load control, the levels of JNK-1 were detected.
The pLNCX24-2 plasmid containing GSE of the same name was transfected in a stable manner in the 293T cells and, as a control, the pLNCX empty vector was transfected. After verifying, by means of PCR, that the 24.2 cell line contained this insert (data not shown), the response to cisplatin was studied, creating a viability curve with this drug. […] JNK and p38 are MAPKs that are activated in response to genotoxic agents (Sanchez-Perez et al., 1998).
Western Blot and antibodies. 20 μg of protein were separated in SDS-polyacrylamide gels; subsequently, they were transferred to Immobilon-P membranes (Millipore) by humid transfer. […]

The next series relates to hTERT. The series can be described thus: RT-PCR expression of hTERT in 293T cell lines after cisplatin. The format is cell-based, human. The conditions noted are these: pre-treated 0.5 μg/ml, treated 3 μg/ml cisplatin for 3 and 7 days. As for the experimental part: FIG. 7.—Expression levels of different genes related to telomerase in 293T cells: pLNCX and 24.2 following treatment with cisplatin. The cells were seeded in 60-mm plates, treated with 3 μg/ml of cDDP following pre-treatment with 0.5 μg/ml of cisplatin for 3 days and, subsequently, collected at the times specified in the figure (3 and 7 days). Following the extraction of RNA, RT-PCR was performed with oligos specific for hTERT, hTR and dyskerin in order to study the expression levels of the messenger RNAs. As a starting RNA control, oligos for the amplification of GAPDH were used.
One of the explanations for the lower sensitivity of pLNCX 24.2 cells to cisplatin could be a change in the levels of some of the components of the telomerase complex. Therefore, the expression levels of different genes involved in the telomerase complex and the effect that cisplatin had on their expression were studied. To this end, the pLNCX and pLNCX 24.2 cells were pre-treated with 0.5 μg/ml and treated with 3 μg/ml of cisplatin for 3 and 7 days. Using oligos specific for hTR, hTERT and dyskerin, the expression levels of these genes and the effect of cisplatin on said expression were studied. […] This change in the sensitivity to cisplatin could explain, at least partially, the difference in sensitivity in the telomerase activity assays.
Expression of genes by RT-PCR. […]

B1: GSE 24.2: 165-pb cDNA fragment (nucleotides 268 to 433) of human dyskerin, SEQ ID NO1, encoding peptide SEQ ID NO2, expressed from pLNCX plasmid (nucleic acid, listed as Homo sapiens)
DNA: GGTTTCATTAATCTTGACAAGCCCTCTAACCCCTCTTCCCATGAGGTGGTAGCCTGGATTCGACGGATACTTCGGGTGGAGAAGACAGGGCACAGTGGTACTCTGGATCCCAAGGTGACTGGTTGTTTAATCGTGTGCATAGAACGAGCCACTCGCTTGGTGAAG
modifications: expressed from pLNCX plasmid; CDS (1)..(165) Sequence GSE 24.2
In the case of B1, the “dose of cisplatin required to activate JNK” value with JNK was “a greater dose of cisplatin is required to activate both kinases”. Also, the “hTERT expression after cisplatin in pLNCX 24.2 cells” value with hTERT was “no reduction in expression in the pLNCX 24.2 cells until 7 days of treatment”.

The values above are taken from patent US9587002B2, “Sequence of nucleotides and peptides GSE 24.2 of dyskerin, which can induce telomerase activity, method for obtaining same, therapeutic compositions and applications thereof” (CONSEJO SUPERIOR DE INVESTIGACIONES CIENTIFICAS, priority 2005, dated 2017).
